This is an account of results in patent US20240173426A1 (Regeneron, published 2024).

Holding throughout (assay): SPR (Biacore), captured mAb, 25 C
In experiment [1] the target is T1, human FGFR3b expressed with a C-terminal myc-myc-hexahistidine tag (hFGFR3b.mmH) (human).
T1 construct: monomeric; also called REGN3152; monomeric human FGFR3b
T1 chain: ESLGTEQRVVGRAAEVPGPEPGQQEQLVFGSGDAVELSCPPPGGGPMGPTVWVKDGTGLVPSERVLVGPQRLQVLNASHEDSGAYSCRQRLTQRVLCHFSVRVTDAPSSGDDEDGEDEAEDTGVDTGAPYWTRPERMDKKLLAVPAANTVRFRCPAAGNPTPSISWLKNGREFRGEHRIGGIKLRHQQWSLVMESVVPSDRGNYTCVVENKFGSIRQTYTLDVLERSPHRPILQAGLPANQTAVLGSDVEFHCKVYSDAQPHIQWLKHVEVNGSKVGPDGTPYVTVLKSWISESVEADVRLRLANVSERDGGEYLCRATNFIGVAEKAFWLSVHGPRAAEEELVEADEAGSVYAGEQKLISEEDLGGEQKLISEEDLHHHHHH
Here is the method: (§1) The CM5 Biacore sensor surface was derivatized by amine coupling with a monoclonal mouse anti-human Fc monoclonal antibody (REGN2567). All Biacore binding studies were performed in a buffer composed of 0.01M HEPES pH 7.4, 0.15 M NaCl, 3 mM EDTA, 0.05% v/v Surfactant P20 (HBS-EP running buffer). […] Antibody-reagent association was monitored for 5 minutes while dissociation in HBS-EP running buffer was monitored for 10 minutes. At the end of each cycle, the anti-FGFR3 antibody capture surface was regenerated using a 10 sec injection of 20 mM phosphoric acid. All binding kinetics experiments were performed at 25° C.
(§2) The specific SPR-Biacore sensorgrams were obtained by a double referencing procedure. The double referencing was performed by first subtracting the signal of each injection over a reference surface (anti-hFc) from the signal over the experimental surface (anti-hFc-captured anti-FGFR3 antibodies) thereby removing contributions from refractive index changes. In addition, running buffer injections were performed to allow subtraction of the signal changes resulting from the dissociation of captured antibodies from the coupled anti-hFc surface. Kinetic association (kₐ) and dissociation (kd) rate constants were determined by fitting the real-time sensorgrams to a 1:1 binding model using Scrubber v2.0c curve fitting software.

Experiment [2] addresses T2, cynomolgus FGFR3b expressed with a C-terminal myc-myc-hexahistidine tag (mfFGFR3b.mmH) (cynomolgus).
T2 construct: The name states R357G; also called REGN3521; mf FGFR3b ecto (R357G) (E23-G377;R357G).mmH
T2 chain: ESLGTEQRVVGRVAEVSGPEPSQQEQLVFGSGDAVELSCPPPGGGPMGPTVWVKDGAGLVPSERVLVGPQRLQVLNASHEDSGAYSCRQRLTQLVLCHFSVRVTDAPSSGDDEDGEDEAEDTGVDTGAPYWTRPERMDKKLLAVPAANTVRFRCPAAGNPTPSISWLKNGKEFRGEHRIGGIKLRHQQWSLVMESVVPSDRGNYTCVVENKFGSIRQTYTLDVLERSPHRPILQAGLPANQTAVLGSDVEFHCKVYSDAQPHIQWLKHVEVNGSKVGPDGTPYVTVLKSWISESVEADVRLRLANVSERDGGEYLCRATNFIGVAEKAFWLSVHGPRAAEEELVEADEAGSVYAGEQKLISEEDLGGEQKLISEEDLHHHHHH
As for the experimental part:
as §1, §2

Experiment [3] deals with T3, human FGFR3c expressed with a C-terminal myc-myc-hexahistidine tag (hFGFR3c.mmH) (human, UniProt P22607 23-375).
T3 construct: monomeric; also called REGN3155; monomeric human FGFR3c
Here is the method: as §1, §2

For experiment [4], the target named is T4, human FGFR3b expressed with a C-terminal murine Fc tag (hFGFR3b.mFc) (human).
T4 construct: called dimeric; also called REGN3153; dimeric human FGFR3b
T4 chain: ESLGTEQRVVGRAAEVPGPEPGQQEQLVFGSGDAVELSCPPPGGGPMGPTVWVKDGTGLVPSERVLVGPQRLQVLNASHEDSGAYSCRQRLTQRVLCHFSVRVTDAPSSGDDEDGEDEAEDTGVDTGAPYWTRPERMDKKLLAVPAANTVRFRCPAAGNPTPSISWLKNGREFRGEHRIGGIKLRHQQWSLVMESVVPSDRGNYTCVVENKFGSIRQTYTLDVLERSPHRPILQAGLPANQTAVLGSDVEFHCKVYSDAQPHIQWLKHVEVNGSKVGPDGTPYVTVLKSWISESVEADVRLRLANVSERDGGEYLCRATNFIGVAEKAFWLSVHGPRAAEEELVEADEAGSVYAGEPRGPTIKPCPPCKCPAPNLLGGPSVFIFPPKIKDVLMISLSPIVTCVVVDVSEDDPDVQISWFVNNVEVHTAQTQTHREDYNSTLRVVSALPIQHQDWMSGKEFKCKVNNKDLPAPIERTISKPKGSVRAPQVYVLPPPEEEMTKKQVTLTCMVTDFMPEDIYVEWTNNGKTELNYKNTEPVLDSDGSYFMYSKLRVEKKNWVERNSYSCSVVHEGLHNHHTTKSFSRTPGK
As for the experimental part: as §1, §2

Experiment [5] addresses T5, murine FGFR3b expressed with a C-terminal myc-myc-hexahistidine tag (mFGFR3b.mmH) (mouse).
T5 construct: monomeric; also called REGN3215; monomeric murine FGFR3b
T5 chain: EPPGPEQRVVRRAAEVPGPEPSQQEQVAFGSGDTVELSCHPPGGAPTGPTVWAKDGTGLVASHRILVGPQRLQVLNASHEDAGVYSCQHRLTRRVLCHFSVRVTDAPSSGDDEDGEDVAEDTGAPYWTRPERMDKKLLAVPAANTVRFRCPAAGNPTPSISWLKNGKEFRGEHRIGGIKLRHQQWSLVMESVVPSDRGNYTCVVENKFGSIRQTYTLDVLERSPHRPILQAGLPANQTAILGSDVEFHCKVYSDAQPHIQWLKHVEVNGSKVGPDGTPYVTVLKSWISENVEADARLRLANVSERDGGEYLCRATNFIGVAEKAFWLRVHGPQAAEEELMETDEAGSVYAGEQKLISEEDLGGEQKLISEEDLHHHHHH
As for the experimental part:
as §1, §2

B1: H4H30095P2 (antibody, human IgG4 S228P, kappa, V domains shown)
VH: QVQLVQSGVEVKKPGASVKVSCKASGYTFKFYGISWVRQAPGQGLEWMGWISVYNGKTKYAQKLQGRVTMTTDTSTSTAYMELRSLRSDDTAVYFCARDGDYESSGYPFDYWGQGTLVTVSS
VL: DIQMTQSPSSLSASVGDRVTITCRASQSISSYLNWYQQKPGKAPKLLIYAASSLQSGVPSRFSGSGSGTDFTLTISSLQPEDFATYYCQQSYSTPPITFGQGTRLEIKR
Regarding B1, the t½ in experiment [1] was determined as 2.3 min; in experiment [2], 2.6 min; in experiment [3], 2.5 min; in experiment [4], 117 min.

B2: H4H30066P (antibody, human IgG4 S228P, kappa, V domains shown)
VH: QVQLVQSGAEVKKPGASVKVSCKVSGYTLTELSMHWVRQAPGKGLEWMGGFDPEDGEIIYAQKFQGRVTMTEDTSTDTAYMDLSSLTSEDTAVYYCATEKQQLVRKYYFYYGLAVWGQGTTVTVSS
VL: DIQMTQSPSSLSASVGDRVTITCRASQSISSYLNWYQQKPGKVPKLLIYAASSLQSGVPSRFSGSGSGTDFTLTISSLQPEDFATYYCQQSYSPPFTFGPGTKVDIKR
For B2, the t½ was 18.2 min in experiment [1], 14.8 min in experiment [2], 2.4 min in experiment [5] and not below 1160 min in experiment [4].

B3: H4H30071P (antibody, human IgG4 S228P, kappa, V domains shown)
VH: QVQLQQSGPGLVKPSQTLSLTCAISGDSVSRNSAAWNWIRQSPSSGLEWLGRTYYRSKWFYDYAISVKSRITVNPDTSKNQFSLHLNSVTPEDTAVYYCARGYGGYEDYFDYWGQGTLVTVSS
VL: DIQMTQSPSSVSASVGDRVTITCRASQGISSWLAWYQQKPGKAPKLLIYGASSLQSGVPSRFSGSGSGTDFTLTISSLQPEDFATYFCQQGSSFPYTFGQGTKLEIKR
Regarding B3, the t½ was 390 min in experiment [1], 520 min in experiment [2], 6.9 min in experiment [5] and not below 1160 min in experiment [4].

B4: H4H30076P (antibody, human IgG4 S228P, kappa, V domains shown)
VH: EVQLVESGGGLVQPGGSLRLSCAASGFTVSSNYMSWVRQAPGKGLEWVSIIYSGGHTYYSDSVKGRFTISRHNSKNTLYLQMNSLRGGDTAVYYCARGYTSGWYGFDFWGQGTLVTVSS
VL: DIQMTQSPSSVSASVGDRVTITCRASQGISTWLAWYQQKPGKAPKLLIYAASSLQSGVPSRFSGTGSGTDFTLTISSLQPEDFATYYCQQTNSFPWTFGQGTKVEIKR
Take B4: the t½ was 263 min in experiment [1], 350 min in experiment [2], 320 min in experiment [5] and not below 1160 min in experiment [4].

B5: H4H30108P2 (antibody, human IgG4 S228P, kappa, V domains shown)
VH: QVQLVQSGAEVKKPGASVKVSCKASGYTFNSYDVNWVRQATGQGLEWMGWMNPHSGNTGYAQKFQGRVTMTRDTSTSTSYMELSSLTSEDTAVYYCARGPFSLLSAEFFQHWGQGTLVTVSS
VL: not shown
As to B5, the t½ in experiment [1] was found to be 72.6 min; in experiment [2] it was 85.2 min; in experiment [5], 5.8 min.

B6: H4H30063P (antibody, human IgG4 S228P, kappa, V domains shown)
VH: QVQLQESGPGLVKPSETLSLTCTVSGDSINSYFWSWIRQLPGKELEWIGHIYSSGSTRYNPSLQSRVTISIDTSKNQFSLKLSSVTAADTAVYYCARGASAVDYWGQGTLVTVSS
VL: EIVLTQSPGTLSLSPGERATLSCRTSQSISSGYLAWYQQKPGQAPRLLIYGASRRATGIPDRFSGSGSGTDFTLTISRLEPEDFVVYYCQQYGSSPYTFGQGTKLEIKR
notes: Tested as whole antibody; also called anti-FGFR3b antibody H4H30063P
In the case of B6, the t½ is 302 min in experiment [1], 275 min in experiment [2], 416 min in experiment [5] and not below 1160 min in experiment [4].

B7: H4H30102P2 (antibody, human IgG4 S228P, kappa, V domains shown)
VH: EVQLVESGGDLVQPGGSLRLSCAASGFTFSSYEMNWVRQAPGKGLEWVSYISNSGSTIYYADSVKGRFTISRDNAETSLYLQMNSLRAEDTAVYYCAREGWGAYCAGDCYSGFDIWGQGTMVTVSS
VL: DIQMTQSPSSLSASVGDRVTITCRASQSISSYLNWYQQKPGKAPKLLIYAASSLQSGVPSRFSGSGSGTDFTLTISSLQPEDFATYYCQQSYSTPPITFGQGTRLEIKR
In experiment [2], B7 returned a t½ of 50.2 min.

B8: H4H30061P (antibody, human IgG4 S228P, kappa, V domains shown)
VH: EVQLVESGGGLAQPGGSLKLSCEASGFTFSDSAMHWVRQASGKGLEWVGRIRSKANSYATGYAASVKGRFTISRDDSKNMAFLEMNSLKTEDTAVYYCLRQTYGDPWGQGTLVTVSS
VL: DVVMTQSPLSLSVTLGQPASISCRSSLSLVYSDGNNYLNWFQQRPGQSPRRLLYKVFNRDSGVPDRFSGSGSGTDFTLKISRVEAEDVGVYYCMQGTHWPWTFGQGTKVEIKR
Take B8: the t½ in experiment [1] is 132 min; in experiment [2], 118 min; in experiment [3] it was 146 min; in experiment [4] it was not below 1160 min.

B9: anti-FGFR3-hIgG1 comparator (REGN6331) (antibody, V domains shown)
VH: EVQLVESGGGLVQPGGSLRLSCAASGFTFTSTGISWVRQAPGKGLEWVGRIYPTSGSTNYADSVKGRFTISADTSKNTAYLQMNSLRAEDTAVYYCARTYGIYDLYVDYTEYVMDYWGQGTLVTVSS
VL: DIQMTQSPSSLSASVGDRVTITCRASQDVDTSLAWYKQKPGKAPKLLIYSASFLYSGVPSRFSGSGSGTDFTLTISSLQPEDFATYYCQQSTGHPQTFGQGTKVEIKR
notes: Human IgG1 comparator; also called COMP6331; anti-FGFR3 comparator antibody
In experiment [1], B9 gave a koff of 0.000616 s⁻¹, a kon of 883000 M⁻¹ s⁻¹ and a t½ of 18.8 min. In experiment [3], this molecule showed a koff of 0.00132 s⁻¹, a kon of 544000 M⁻¹ s⁻¹ and a t½ of 8.77 min.

B10: H4H30089P2 (antibody, human IgG4 S228P, kappa, V domains shown)
VH: EVQLVESGGGLVQPGGSLRLSCIVSGFIFSSYEMSWLRQAPGKGLEWISYISSSGRVIYYADSVKGRFTISRDSAKNSLYLEMNSLRAEDTAIYYCTRKWDSSGPFDFWGQGTLVTVSS
VL: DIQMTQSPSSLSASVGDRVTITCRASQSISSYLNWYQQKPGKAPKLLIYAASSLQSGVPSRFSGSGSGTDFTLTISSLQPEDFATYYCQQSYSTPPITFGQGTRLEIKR
As to B10, the t½ stood at 4.1 min in experiment [1], 5.2 min in experiment [2], 4.9 min in experiment [5] and 608 min in experiment [4].

B11: H4H30117P2 (antibody, human IgG4 S228P, kappa, V domains shown)
VH: QVQLVQSGAEVKKPGSSVKVSCKASGDTFSNYVIGWVRQAPGQGLEWMGGIIPIFGTTNYAQQFQGRVTITTDESTSTAYMELSSLRSEDTAVYYCARDGNYGDYFDYWGQGTLVTVSS
VL: not shown
For the molecule B11, the t½ came to 1.8 min in experiment [1], 1.3 min in experiment [2], 1.6 min in experiment [3] and 87 min in experiment [4].

B12: H4H30045P (antibody, human IgG4 S228P, kappa, V domains shown)
VH: QVQLVQSGAEVKKPGASVKVSCKTSGYRFVNYGFSWVRQAPGQGLEWMGWISPYNGNTNYIQNLQDRITMTTDTSTNTAYMELTNLRSDDTAVYYCATLTGVHFDYWGQGTLVTVSS
VL: AIQMTQSPSSLSASVGDRVTITCRASQGIRNDLGWYQQKPGKAPNLLIFETSRLQSGVPSRFSGSGSGTDFTLTINSLQPEDFATYYCLQDYNYPWTFGQGTKVEIKR
Consider B12, for which the t½ amounted to 1.9 min in experiment [1], 1.3 min in experiment [2], 1.5 min in experiment [3] and 71.8 min in experiment [4].

The t½ is the time needed for the level to fall by half in the phase considered. Low values mean fast loss, high ones slow loss. One may read the koff as the first-order rate constant of dissociation. Lower therefore signals a long-lived complex. The term kon denotes a measure of how fast the partners come together.
